In PMC9062740:
Residue numbers refer to the chain shown, from its start. Numbers in names are those of the source.

B1: CLIP-170 CG1 fragment (58-140), P30622 K98E (protein)
chain: FRVGERVWVNGNKPGFIQFLGETQFAPGQWAGIVLDEPIGENDGSVAGVRYFQCEPLKGIFTRPSKLTRKVQAEDEANGLQTT
B2: CLIP-170 CG1 fragment (58-140), P30622 K123A (protein)
chain: B1 chain with E41K, K66A
B3: CLIP-170 CG1 fragment (58-140), P30622 K98E; N99D (protein)
chain: B1 chain with N42D
B4: CLIP-170 CG2 fragment (206-288), P30622 K238A (protein)
chain: KKGERELKIGDRVLVGGTKAGVVRFLGETDFAAGEWCGVELDEPLGKNDGAVAGTRYFQCQPKYGLFAPVHKVTKIGFPSTTP
B5: CLIP-170 CG2 fragment (206-288), P30622 K252E; N253D (protein)
chain: B4 chain with A33K, K47E, N48D
B6: CLIP-170 CG2 fragment (206-288), P30622 N253A (protein)
chain: B4 chain with A33K, N48A
B7: CLIP-170 CG2 fragment (206-288), P30622 K252A (protein)
chain: B4 chain with A33K, K47A
B8: CLIP-170 CG2 fragment (206-288), P30622 K224A (protein)
chain: B4 chain with K19A, A33K
B9: CLIP-170 CG2 fragment (206-288), P30622 K277A (protein)
chain: B4 chain with A33K, K72A

Biological target: taxol-stabilized microtubules polymerized from porcine brain tubulin, P02550
Assay: MT-binding assay (cosedimentation)
Conditions: chain shown with the change; 5 μM CG1 mutant, […] taxol–MTs; parent: est. 1.0; read off a plot

Chain of taxol-stabilized microtubules polymerized from porcine brain tubulin, P02550 (P02550 whole entry, chain 1 of 2): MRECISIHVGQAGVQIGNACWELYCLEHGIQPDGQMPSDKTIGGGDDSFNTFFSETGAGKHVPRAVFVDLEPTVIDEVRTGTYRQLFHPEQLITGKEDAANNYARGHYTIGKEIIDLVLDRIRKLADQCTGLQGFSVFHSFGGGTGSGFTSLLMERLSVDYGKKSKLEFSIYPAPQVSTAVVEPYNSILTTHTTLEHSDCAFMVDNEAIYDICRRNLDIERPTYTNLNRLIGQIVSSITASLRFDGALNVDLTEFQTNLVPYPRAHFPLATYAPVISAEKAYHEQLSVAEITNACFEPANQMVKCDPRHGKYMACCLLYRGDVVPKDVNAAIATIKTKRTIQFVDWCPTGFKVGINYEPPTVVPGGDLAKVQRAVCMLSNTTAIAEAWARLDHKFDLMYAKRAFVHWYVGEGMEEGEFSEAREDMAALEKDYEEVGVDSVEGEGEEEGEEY
Chain of taxol-stabilized microtubules polymerized from porcine brain tubulin, P02550 (chain, as listed by the source, chain 2 of 2): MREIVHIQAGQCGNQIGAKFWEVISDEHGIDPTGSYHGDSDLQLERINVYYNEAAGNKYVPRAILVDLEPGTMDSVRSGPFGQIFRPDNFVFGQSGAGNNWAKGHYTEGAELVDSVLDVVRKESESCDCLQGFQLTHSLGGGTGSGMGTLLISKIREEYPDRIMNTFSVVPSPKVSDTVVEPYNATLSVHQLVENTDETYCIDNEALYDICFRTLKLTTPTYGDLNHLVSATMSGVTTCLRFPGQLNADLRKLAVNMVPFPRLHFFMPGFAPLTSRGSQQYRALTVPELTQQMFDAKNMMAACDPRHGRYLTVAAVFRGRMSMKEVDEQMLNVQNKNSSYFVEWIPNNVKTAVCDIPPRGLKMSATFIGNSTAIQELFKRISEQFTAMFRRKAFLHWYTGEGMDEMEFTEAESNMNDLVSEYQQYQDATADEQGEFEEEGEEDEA

ratio to parent	Binder
0.28	B1
0.52	B2
0.42	B3

Same assay, conditions: chain shown with the change; 5 μM CG2 mutant, […] taxol–MTs; parent: est. 1.0; read off a plot

ratio to parent	Binder
0.97	B4
0.23	B5
0.8	B6
0.28	B7
0.4	B8
0.75	B9
